Assay results taken from patent US7709606B2, “Interacting polypeptide comprising a heptapeptide pattern and a cellular penetration domain” (Ecole Normale Superieure de Lyon, priority 2003, dated 2010).
Like-named read-outs stand apart in the source and are kept apart here.

How the values were obtained:
Rev/RRE association = Rev/RRE association (Human immunodeficiency virus type 1 group M subtype B, UniProt P04618); conditions: Rev produced in bacteria, RRE RNA probe
Description: To this end, gel retard experiments were carried out with a RNA molecule corresponding to the RRE element as the probe. The Rev protein produced in bacteria binds to this RNA and induces a non denaturing polyacrylamide gel migration retardation.

HIV-1-LA1 = assay: antiviral test in PHA-P activated PBMC, RT activity; format: cell-based; conditions: for anti-HIV activity, replication of HIV-1-LA1: PBMC activated by PHA-P, 7th day, in words; for Percentage inhibition, Mean: HIV-1 LA1, day 7
Description: (§1) These viruses were amplified in vitro with umbilical blood mononuclear cells (UBMC) activated with PHA-P. The cell-free supernatant was centrifuged at […] for 10 minutes to eliminate soluble factors, and the residue was re-suspended in cell culture medium. Virus stocks were titrated using PBMC cells activated with PHA-P and 50% tissue culture infectious doses (TCID50) were calculated using Kärber's formula.
PBMC cells were pre-treated for 30 minutes by 5 concentrations of each molecule and infected with 75 TCID50 of the HIV-1-LA1 strain. AZT (1.6, 8, 40, 200 and 1000 nM) and indinavir (1.6, 8, 40, 200 and 1000 nM) were used as the control. […] The molecules were maintained throughout culture, and the cellular supernatant was harvested 7 days post infection and stored at −20° C. to measure viral replication by reverse transcriptase activity (RT) assay.
(§2) HIV replication was analyzed by assaying the RT activity in the supernatants from cell cultures using the RetroSys RT kit (Innovagen). The experiments were carried out 3 times and the results are expressed as the mean of the RT activity±the standard deviation (SD).
In a last step, it was examined whether SHPs were actually capable of inhibiting HIV-1 replication. This was carried out in PBMCs activated by PHA-P and in MDMs. […] The effects of different SHPs was thus tested at this time. AZT and indinavir were used as controls.

GST-Rev = GST-Rev (Human immunodeficiency virus type 1 group M subtype B, UniProt P04618); conditions: eluted with glutathione, immunoblot
Description: GXT-Rev was produced in bacteria and loaded onto an agarose-glutathion column. […] After rinsing, the proteins were eluted with glutathione. An aliquot of the feed, rinse and elution fractions was analyzed by immunoblot for GST-Rev (top graph) and for SHP using antibodies against GST or against FLAG respectively.
The SHPR activity was evaluated using the reporter construct pDM128 which included the coding sequence CAT and an RRE motif in an intron. Expression of Rev stimulated expression of CAT allowing an unspliced messenger to be exported to the cytoplasm. […] It was verified whether this inhibition was in fact directly correlated with a protein-protein interaction as predicted. To this end, both Rev and the SHPRs were produced in bacteria. […] Rev was expressed in fusion with GST and coupled to glutathione-agarose beads.

Tat = biological target: T1, Tat (Human immunodeficiency virus type 1 group M subtype B, UniProt P04608); assay: Tat functional test, LTR HIV-CAT reporter in HeLa cells; format: cell-based, HIV-1; conditions: higher concentrations
T1 construct: expressed in transfected cells; host or cells: HeLa
Description: The effect of the 4 SHPTs on the transactivation of the HIV-1 promoter by Tat was evaluated by transitory expression experiments in HeLa cells.

HIV-1/Ba-L = assay: antiviral test in monocyte-derived macrophages (MDM), RT activity; format: cell-based
Description: as §1
The MDM cells were pre-treated for 30 minutes in 6 concentrations of different molecules and infected with 30000 TCID50 of the HIV-1/Ba-L strain. AZT (0.8, 4, 20, 100 and 500 nM) and indinavir (0.8, 4, 20, 100 and 500 nM) were used as the control. […] The molecules were maintained for 7 days post infection, and the cellular supernatant was harvested 7, 14 and 21 days post infection and stored at −20° C. to measure viral replication by reverse transcriptase activity (RT) assay.
as §2

Jurkat cells = assay: intracellular entry, immunofluorescence in Jurkat cells; format: cell-based; conditions: 2 μM for one hour, analyzed 24 h later
Description: Light transmission and fluorescence images are shown for representative cells.
The immunofluorescence tests were carried out with a primary anti-FLAG antibody in a dilution of 1:500 incubated for 2 hours and a secondary antibody coupled to the Alexa Fluor 488 fluorophore (Molecular Probes) diluted 1:1000, incubated for one hour.
To confirm that SHPs do indeed enter the cell, immunofluorescence analyses were also carried out. Jurkat cells were incubated with 1 μM of SHP for 4 hours and after washing twice, the cells were cultured for 24 hours.

LexNES (NES of Rev) = LexNES (NES of Rev) (Human immunodeficiency virus type 1 group M subtype B, UniProt P04618); conditions: in words; method not stated
Rev = Rev (Human immunodeficiency virus type 1 group M subtype B, UniProt P04618); conditions: HeLa cells
Description: This type of indicative construct allowed an evaluation of the effect of Rev, which by causing transport towards the cytoplasm of the non spliced RNA, allowed expression of the CAT enzyme.
The CAT activity was measured using the CAT ELISA kit (Roche).
These various mutants were tested using a transitory expression system consisting of transfecting HeLa cells of the reporter plasmid having the CAT sequence associated with the RRE in the intronic position with expression vectors for the Rev protein and the SHPR protein. […] The separation between the two values was less than 20%.
These vectors were transfected with the reporter plasmid pDM128 and the expression vector Rev as described in the above sections (and in Roisin et al, JBC (2004) 279: 9208). The quantity of CAT protein is expressed as a % of that corresponding to transfection of parental SHPR. A value of more than 100 thus indicates a negative effect on the inhibiting power of SHPR and a lower value indicates an increase in this inhibiting property.

[1] = MDMs, HIV-1/Ba-L, Day 7, dose 62.5 (nM)
[2] = MDMs, HIV-1/Ba-L, Day 7, dose 125 (nM)
[3] = MDMs, HIV-1/Ba-L, Day 7, dose 250 (nM)
[4] = MDMs, HIV-1/Ba-L, Day 7, dose 500 (nM)
[5] = MDMs, HIV-1/Ba-L, Day 7, dose 1000 (nM)
[6] = MDMs, HIV-1/Ba-L, Day 7, dose 2000 (nM)
[7] = MDMs, HIV-1/Ba-L, Day 14, dose 62.5 (nM)
[8] = MDMs, HIV-1/Ba-L, Day 14, dose 125 (nM)
[9] = MDMs, HIV-1/Ba-L, Day 14, dose 250 (nM)
[10] = MDMs, HIV-1/Ba-L, Day 14, dose 500 (nM)
[11] = MDMs, HIV-1/Ba-L, Day 14, dose 1000 (nM)
[12] = MDMs, HIV-1/Ba-L, Day 14, dose 2000 (nM)
[13] = MDMs, HIV-1/Ba-L, Day 21, dose 62.5 (nM)
[14] = MDMs, HIV-1/Ba-L, Day 21, dose 125 (nM)
[15] = MDMs, HIV-1/Ba-L, Day 21, dose 250 (nM)
[16] = MDMs, HIV-1/Ba-L, Day 21, dose 500 (nM)
[17] = MDMs, HIV-1/Ba-L, Day 21, dose 1000 (nM)
[18] = MDMs, HIV-1/Ba-L, Day 21, dose 2000 (nM)

LexNES (NES of Rev), sequence (P04618 70-96): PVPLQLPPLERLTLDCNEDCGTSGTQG
T1 sequence (P04608 whole entry): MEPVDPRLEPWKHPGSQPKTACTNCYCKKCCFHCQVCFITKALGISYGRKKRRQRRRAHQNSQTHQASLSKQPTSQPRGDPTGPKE

Molecule	effect on Rev/RRE association (gel retardation) (Rev/RRE association)	anti-HIV activity, replication of HIV-1-LA1 (HIV-1-LA1)	Percentage inhibition, Mean (HIV-1-LA1; PBMCs, Dose 31 (nM)) [%]	Percentage inhibition, Mean (HIV-1-LA1; PBMCs, Dose 62.5 (nM)) [%]	Percentage inhibition, Mean (HIV-1-LA1; PBMCs, Dose 125 (nM)) [%]	Percentage inhibition, Mean (HIV-1-LA1; PBMCs, Dose 250 (nM)) [%]	Percentage inhibition, Mean (HIV-1-LA1; PBMCs, Dose 500 (nM)) [%]	Percentage inhibition, Mean (HIV-1-LA1; PBMCs, Dose 1000 (nM)) [%]	Percentage inhibition, Mean (HIV-1-LA1; PBMCs, Dose 2000 (nM)) [%]	inhibition of HIV replication (HIV-1/Ba-L; MDM, 2 μM on day 14) [%]	Percentage inhibition, Mean (HIV-1/Ba-L; [1]) [%]	Percentage inhibition, Mean (HIV-1/Ba-L; [2]) [%]	Percentage inhibition, Mean (HIV-1/Ba-L; [3]) [%]	Percentage inhibition, Mean (HIV-1/Ba-L; [4]) [%]	Percentage inhibition, Mean (HIV-1/Ba-L; [5]) [%]	Percentage inhibition, Mean (HIV-1/Ba-L; [6]) [%]	Percentage inhibition, Mean (HIV-1/Ba-L; [7]) [%]	Percentage inhibition, Mean (HIV-1/Ba-L; [8]) [%]	Percentage inhibition, Mean (HIV-1/Ba-L; [9]) [%]	Percentage inhibition, Mean (HIV-1/Ba-L; [10]) [%]	also measured
SHPT-8: SUMO-1-heptapeptide-Tat PTD protein selected against Tat; heptapeptide Phe Thr Met Arg Gly Val Asp (SEQ ID NO: 38) (protein) MSDQEAKPSTEDLGDKKEGEYIKLKVIGQDSSEIHFKVKMTTHLKKLKESYCQRQGVPMNSLRFLFEGQRIADNHTPKELGMEEEDVIEVYQEQTARPPNPKKEIELGGGGSFTMRGVDPGRKKRRQRRRG	no particular effect	did not have any anti-HIV activity	0	0	0	0	0	0	0	69±6	5	39	78	78	70	84	0	2	55	50	co-elution with GST-Rev (GST-Rev): no SHPT was present in fractions containing GST-Rev; co-elution with GST-Rev (GST-Rev; listed as SHPR-8): did not bind to the protein on the column; Tat transactivation of the HIV-1 promoter (Tat): slight reduction in transactivation; ED70 (HIV-1/Ba-L; MDMs, HIV-1/Ba-L, Day 14): 2.05 µM; ED90 (HIV-1/Ba-L; MDMs, HIV-1/Ba-L, Day 14): 5.5 µM; Percentage inhibition, Mean (HIV-1/Ba-L; [11]): 46%; Percentage inhibition, Mean (HIV-1/Ba-L; [12]): 69%; Percentage inhibition, Mean (HIV-1/Ba-L; [13]): 0%; Percentage inhibition, Mean (HIV-1/Ba-L; [14]): 5%; Percentage inhibition, Mean (HIV-1/Ba-L; [15]): 37%; Percentage inhibition, Mean (HIV-1/Ba-L; [16]): 21%; Percentage inhibition, Mean (HIV-1/Ba-L; [17]): 20%; Percentage inhibition, Mean (HIV-1/Ba-L; [18]): 59%; immunofluorescence with antibody against FLAG (Jurkat cells): diffuse fluorescence
SHPR-142: SUMO-1-heptapeptide-Tat PTD protein against Rev; heptapeptide Phe Trp Phe Cys Gly Leu Lys (SEQ ID NO: 2) (protein, left off: small tags and cut ends) MSDQEAKPSTEDLGDKKEGEYIKLKVIGQDSSEIHFKVKMTTHLKKLKESYCQRQGVPMNSLRFLFEGQRIADNHTPKELGMEEEDVIEVYQEQTARPPNPKKEIELGGGGSFWFCGLKPGRKKRRQRRRG	did not inhibit this association	reduced replication	0	0	0	0	19	26	73	44±10	0	0	0	0	3	35	0	0	0	0	reduction of HIV-1 replication (HIV-1-LA1; PBMC activated with PHA-P, 2 μM): 73±6%; ED70 (HIV-1-LA1; PBMCs, HIV-1-LA1, 7th day): 2.1 µM; ED90 (HIV-1-LA1; PBMCs, HIV-1-LA1, 7th day): 4.6 µM; interaction with the NES signal of Rev (LexNES (NES of Rev)): interacts with Rev NES; inhibition of HIV replication (HIV-1/Ba-L; MDM, 1 μM): not effect; anti-HIV activity, HIV-1/Ba-L replication (HIV-1/Ba-L; MDM, in words): slight inhibition of HIV replication; Percentage inhibition, Mean (HIV-1/Ba-L; [11]): 0%; Percentage inhibition, Mean (HIV-1/Ba-L; [12]): 44%; Percentage inhibition, Mean (HIV-1/Ba-L; [13]): 0%; Percentage inhibition, Mean (HIV-1/Ba-L; [14]): 0%; Percentage inhibition, Mean (HIV-1/Ba-L; [15]): 0%; Percentage inhibition, Mean (HIV-1/Ba-L; [16]): 0%; Percentage inhibition, Mean (HIV-1/Ba-L; [17]): 0%; Percentage inhibition, Mean (HIV-1/Ba-L; [18]): 18%; immunofluorescence with antibody against FLAG (Jurkat cells): diffuse fluorescence; inhibition of the function of Rev (CAT from pDM128) (Rev): effective inhibitors of the function of Rev
